According to patent US20260193375A1 (NORMUNITY, published 2026):
Numbering of substitutions follows the chain as printed.

B1: anti-LY6K antibody 3743 (antibody, V domains shown)
VH: EVQLVESGGGLVHPGRSLRLSCAASGFTFDDYAMHWVRQAPGKGLEWVSGISWKSGRIDYADSVKGRFTISRDNAKNSLYLQMNSLRAEDTALYYCAKDRRELTFDIWGQGTMVTVSS
VL: DIVMTQTPLSSPVTLGQPASISCRSSQSLEHSNGNTYLSWLQQRPGQPPRLLIYKISNRFSGVPDRFSGSGAGTDFTLKISRVEAEDVGVYYCMQTTQFPLTFGGGTKVEIK
B2: anti-LY6K antibody 3056 (antibody, V domains shown)
VH: EVQLVESGGGLVQPGRSLRLSCAASGFTYDDYAMHWVRQVPGKGLEWVSGITWKKSIIGYADSVRGRFTVSRDSAKNSLYLQMSSLRVEDTALCYCAKDSTDGLDYWGQGTLVTVSS
VL: B1 VL with I21L, E30L, A85G, T96A, Q98E, L101Y, G105Q, V109L
notes: Has values only in SPR (CHO supernatant, captured by anti-human IgG-Fc)
B3: anti-LY6K antibody 3063 (antibody, V domains shown)
VH: EVQLVESGGGLVKPGRSLRLSCAASGFTFDDFAMHWVRQAPGKGLEWVSGLSWKGHTLGYADSVKGRFTFSRDSAKNSLYLQMNSLRAEDTALYYCAKDTRSGLDYWGQGTLVTVSS
VL: B1 VL with N33D, S70N, V90I, T96A, Q98E, L101F
B4: anti-LY6K antibody 3728 (antibody, V domains shown)
VH: EVQLVESGGGLVKPGGSLRLSCAASGFTFSDVWMSWVRQAPGKGLEWVGRIKSKTDGGRIDYAAPVKGRFTISRDDSKNTLYLQMNSLKTEDTAVYYCTTVPYSDYWGQGTLVTVSS
VL: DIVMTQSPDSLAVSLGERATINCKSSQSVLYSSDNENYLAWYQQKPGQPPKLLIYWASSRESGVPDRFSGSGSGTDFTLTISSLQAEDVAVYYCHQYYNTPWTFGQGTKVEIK
B5: anti-LY6K antibody 2659 (antibody, V domains shown)
VH: EVQLVESGGGLVQPGRSLRLSCAASGFTFDDYAMHWVRQAPGKGLEWVSGISWKSGIIGYADSVKGRFTISRDNAKNSLYLQMNSLRAEDTALYYCAKDSRTGLDYWGQGTLVTVSS
VL: not shown
notes: as for B2
B6: anti-LY6K antibody 3102 (antibody, V domains shown)
VH: QVQLVQSGAEVKKPGASVKVSCKASGYTFTGYYIHWMRQAPGQGLEWMGWINPNSGGTNYAQNFQGRVTMTRDTSINTAYMELSRLKSDDTAVYYCAKESGSPWGQGTLVTVSS
VL: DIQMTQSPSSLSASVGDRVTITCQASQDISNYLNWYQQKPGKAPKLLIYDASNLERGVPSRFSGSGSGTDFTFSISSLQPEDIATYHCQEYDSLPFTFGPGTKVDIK
B7: anti-LY6K antibody 3553 (antibody, V domains shown)
VH: QVQLVQSGAEVKKPGASVKVSCKASGYTFTGYYMHWVRQAPGTGLDWMGWISPNSGGTNYAQKFQGRVTMTRDTSISTVYMELSRLRSDDTALYYCAREVGNYWGQGTLVTVSS
VL: DIQMTQSPTSLSTSVGDRVTITCQASQDIYNYLNWYQLKPGKAPKLLIYDASNLERGVTSRFSGSGSGTDFTFTISSLQPEDIATYYCQQYDSLPITFGQGTRLEIK
B8: anti-LY6K antibody 3518 (antibody, V domains shown)
VH: EVQLVESGGGLVQPGGSLKLSCAASGFTFSGSAMNWVRQASGKGLEWVGRIRSKANSYATAYAASLKGRFTISRDDSKNTAYLQMNSLKTEDTAVYYCTVTPFDYWGQGTLVTVSS
VL: DIQMTQSPSSLSASVGDRVTITCQASQDISNHLNWYQQKPGKAPKLLINDASNLETGVPSRFSGSGSGTDFTFTISSLQPEDIATYYCQQYDNVPYTFGQGTKLEIK
B9: anti-LY6K antibody 3096 (antibody, V domains shown)
VH: QVQLVQSGAEVKKPGASVRVSCKASGYTFTGYYIHWVRQAPGQGLEWMGWINPNSGGTNYAQKFQDRVTMTRDTSISTVYMELSRLRSDDTAVFFCAREASNFWGQGTLVTVSS
VL: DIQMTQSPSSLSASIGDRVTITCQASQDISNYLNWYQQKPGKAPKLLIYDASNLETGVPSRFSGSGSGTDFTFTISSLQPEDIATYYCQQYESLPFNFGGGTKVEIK
B10: anti-LY6K antibody 3055 (antibody, V domains shown)
VH: EVQLVESGGGLVQPGRSLRLSCAASGFTFDDFAMHWVRQAPGKGLEWVSGISWNTGTIGYADSVKGRFTISRDNAKNSLYLQMNSLRAEDTALYYCAKDKGTTGFDYWGQGTLVTVSS
VL: DIQMTQSPSSVSASVGDRVTITCRASQGISRWLVWYQQKPGKAPKLLIYAASSLQSGVPSRFSGSGSGTDFTLTISSLQPEDFATYYCQQANSFPRTFGQGTRLEIK
B11: anti-LY6K antibody 3719 (antibody, V domains shown)
VH: EVQLVESGGGLVQPGRSLRLSCTASGFTFNDYAMHWVRQAPGKGLEWVSGISWNSNNIDYADSVKGRFTISRDNAKNSLYMQMNSLRAEDTALYYCAKDGPGTTNDAFDIWGQGTMVTVSS
VL: DIQMTQSPSSLSASVGDRVTITCRASHSISSYLNWYQQKPGKAPKLLIYAASSLQSGVPSRFSGSGSGTDFTLTISSLQPEDFATYYCHQGYSTPLTFGGGTKVEIK
B12: anti-LY6K antibody 3501 (antibody, V domains shown)
VH: EVQLVESGGGLVQPGRSLRLSCAASGFTFDDYAMHWVRQAPGKGLEWVSGISWNSGTIDYADSVKGRFTISRDNAKNSLYLQVNSLRAEDTALYYCAKDSPQKDYYYMDVWGKGTTVTVSS
VL: B11 VL with A25T, H27Q, K45N, H89Q, G91S, S93I, L96I, G100Q, K103R, V104L
B13: anti-LY6K antibody 3527 (antibody, V domains shown)
VH: EVQLVESGGGLVKPGGSLRLSCAASGFTFSSYSMNWVRQAPGKGLEWVSSISSTSSYIYYADSVKGRFTISRDNAKNSLYLQMNSLRAEDTAVYYCARSDYYDSGSYKNYYYYYMDVWGKGTTVTVSS
VL: B11 VL with A25T, H27Q, Y36F, L46V, S56R, H89Q, G91S
B14: anti-LY6K antibody 3514 (antibody, V domains shown)
VH: QVQLVQSGAEVKKPGASVKVSCKASGYTFTSYGISWVRQATGQGLEWMGWMNPNSGNTGYAQKFQGRVTMTRNTSISTAYMELSSLRSEDTAVYYCRAAGYYYYYYYMDVWGKGTTVTVSS
VL: not shown

Experiments:
[1] = target: T1, cynomolgus monkey LY6K (R&D Systems) (cynomolgus monkey); assay: ELISA, coated antigen, IgG1 at 10 ug/ml
T1 construct: also called cyLY6K

[2] = target: T2, rat LY6K (R&D Systems) (rat); assay: ELISA, coated antigen, IgG1 at 10 ug/ml
T2 construct: also called rLY6K

[3] = target: T3, human LY6E (R&D Systems) (human, UniProt Q16553 21-101, limits assumed); assay: ELISA, coated antigen, IgG1 at 10 ug/ml
T3 construct: also called hLY6E
T3 sequence (looked up): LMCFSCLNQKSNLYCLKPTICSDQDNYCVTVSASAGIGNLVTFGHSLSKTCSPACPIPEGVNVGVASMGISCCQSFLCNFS

[4] = target: T4, hLY6K-his (human, UniProt Q17RY6 18-138, limits assumed); assay: SPR (Carterra LSA), mAb captured on anti-human IgG-Fc, antigen as analyte
T4 construct: not shown: his tag
T4 sequence: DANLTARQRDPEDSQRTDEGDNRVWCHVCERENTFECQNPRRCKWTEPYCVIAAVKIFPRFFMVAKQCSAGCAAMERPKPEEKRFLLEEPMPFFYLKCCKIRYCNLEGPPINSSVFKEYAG

[5] = target: T5, hLY6K-mFc (human, UniProt Q17RY6 18-138); assay: as above
T5 construct: not shown: mFc
T5 sequence: T4 sequence

[6] = target: T6, Ly6H; assay: ELISA, antigen coated on the plate, antibody as human IgG1, anti-human F(ab)2 HRPO
T6 chain: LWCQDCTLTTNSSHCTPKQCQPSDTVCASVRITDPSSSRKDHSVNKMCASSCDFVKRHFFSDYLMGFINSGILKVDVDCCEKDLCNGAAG

[7] = target: T3, human LY6E (R&D Systems); assay: as above
[8] = target: T7, Ly6D; assay: as above
T7 chain: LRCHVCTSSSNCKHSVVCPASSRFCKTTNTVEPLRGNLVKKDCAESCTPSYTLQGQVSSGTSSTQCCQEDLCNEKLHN

[9] = target: T8, Human LY6K (R&D Systems) (human, UniProt Q17RY6 18-138, limits assumed); assay: ELISA, coated antigen, IgG1 at 10 ug/ml
T8 construct: Bought from R&D Systems, coated on ELISA plates; also called hLY6K
T8 sequence: T4 sequence

[10] = target: cyLY6K-mFc (cynomolgus monkey); assay: SPR (Carterra LSA), mAb captured on anti-human IgG-Fc, antigen as analyte

Binder | % of maximum of commercial anti-LY6K mAb on human LY6K [1] [%] | % of maximum of commercial anti-LY6K mAb on human LY6K [2] [%] | % of maximum of commercial anti-LY6K mAb on human LY6K [3] [%] | Kd [4] [nM] | Kd [5] [nM] | binding result [6] | binding result [7] | binding result [8] | % of maximum of commercial anti-LY6K mAb on human LY6K [9] [%] | Kd [10] [nM]
B1 | 3.5 | 2.6 | 5 | – | – | – | – | – | – | –
B2 | – | – | – | 0.472 | 0.0233 | – | – | – | – | –
B3 | 2.6 | -0.2 | 4.2 | – | – | no binding (tested: 10 µg/ml) | no binding (tested: 10 µg/ml) | no binding (tested: 10 µg/ml) | – | –
B4 | 110 | -1.3 | 1 | 4.96 | 0.00734 | – | – | – | 96.4 | 0.0786
B5 | – | – | – | 6.13 | 0.034 | – | – | – | – | –
B6 | 40.1 | 0.2 | 3.8 | – | – | – | – | – | 38.4 | –
B7 | 28.9 | 2.4 | 5 | – | – | – | – | – | 26 | –
B8 | 2.7 | 2.1 | 2.1 | – | – | – | – | – | – | –
B9 | 37.2 | 0 | 1 | 63.8 | 1.36 | – | – | – | 35 | 9.49
B10 | 40.3 | 0.4 | – | – | – | – | – | – | 22.6 | –
B11 | 0.8 | -1.7 | 4.2 | – | – | no binding (tested: 10 µg/ml) | no binding (tested: 10 µg/ml) | no binding (tested: 10 µg/ml) | – | –
B12 | 2 | 0.4 | 4.3 | – | – | no binding (tested: 10 µg/ml) | no binding (tested: 10 µg/ml) | no binding (tested: 10 µg/ml) | – | –
B13 | 58 | 1.1 | 4.6 | – | – | – | – | – | 54.6 | –
B14 | 2.6 | 0 | 2.9 | – | – | – | – | – | – | –
